This is an account of results in patent publication US20070258982A1 (Pfizer, published 2007).

The labels stand for the following.
T1: human IL-22 (human, UniProt Q9GZX6 34-179)
T1 sequence: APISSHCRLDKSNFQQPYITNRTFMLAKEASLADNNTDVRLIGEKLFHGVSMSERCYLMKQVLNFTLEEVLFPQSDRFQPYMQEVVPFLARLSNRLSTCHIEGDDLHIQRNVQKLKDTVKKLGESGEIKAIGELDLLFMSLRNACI

T2: murine IL-22 (murine, UniProt Q9JJY9 34-179)
T2 sequence: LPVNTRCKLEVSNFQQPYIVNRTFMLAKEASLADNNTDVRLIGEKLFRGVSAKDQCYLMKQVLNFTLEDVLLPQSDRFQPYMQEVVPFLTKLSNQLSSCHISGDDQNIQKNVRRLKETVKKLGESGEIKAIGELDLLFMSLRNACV

T3: rat IL-22 (rat, UniProt G3V6X6 34-178)
T3 sequence: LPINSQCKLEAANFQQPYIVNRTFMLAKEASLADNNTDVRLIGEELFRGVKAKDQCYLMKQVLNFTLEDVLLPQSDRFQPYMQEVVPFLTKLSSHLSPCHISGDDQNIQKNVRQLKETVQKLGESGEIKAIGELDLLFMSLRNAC

T4: IL-26 (human, UniProt Q9NPH9)
T4 construct: also called human IL-26
T4 sequence (cytokine, looked up): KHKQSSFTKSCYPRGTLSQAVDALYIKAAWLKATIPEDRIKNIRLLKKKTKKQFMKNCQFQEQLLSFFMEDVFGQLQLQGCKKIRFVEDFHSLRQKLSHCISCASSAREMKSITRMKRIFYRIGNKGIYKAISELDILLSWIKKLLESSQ

B1: 097D09 IgG (non-germlined) (antibody, V domains shown)
VH: EVQLVESGGGLVTPGGSLRLSCAASGFTFSDYYMSWVRQAPGRGLEWVSAISGSGGSTYYADSVKGRITISRDNAKNSLYLQMSSLRSEDTAVYYCARGLWVWDPLDYWGRGTLVTVSS
VL: DIQMTQSPSTLSASIGDRVTITCRASEGIYHWLAWYQQKPGKAPKLLIYKASSLASGAPSRFSGSGFGTDFTLTISSLQPDDFATYYCQQYSEFAWTFGGGTKLEIKR
notes: IgG
B2: 062G05 IgG (non-germlined) (antibody, V domains shown)
VH: QVQLVESGAEVKKPGASVKVSCKASGYTFTSYGISWVRQAPGQGLEWMGWISAYTGNTNYAQKFQGRVTMTTDTSTSTAYMELRSLRSDDTAVYYCARDRGYYDAFDIWGQGTLVTVSS
VL: B1 VL with Y91M, S92G, F94W, A95K, W96A, T97A
notes: IgG
B3: 367D04 IgG (non-germlined) (antibody, V domains shown)
VH: EVQLVESGGGVVRPGGSLRLSCAASGFTFDDYGMNWVRQAPGKGLEWVSGVNWNGGTRDYAASVKGRFTISRDNAKNSLYLQMNSLRAEDTALYYCARGWYSGSPWSLGHWGRGTLVTVSS
VL: QAVLTQPSSVSGSPGQSVTISCTGASGDVGAYNFVSWYQQHPGKTPKLIIYDVNKRPSGVSNRFSGSKSGNTASLTISRLQAEDESDYYCSSYTSRYTTEFGGGTKVTVLG
notes: IgG
B4: 368D04 IgG (non-germlined) (antibody, V domains shown)
VH: B3 VH with S104A, P105A, S107N, L108M, H110Y
VL: B3 VL with V18I, R79G, S91A, Y93L, T94V, R96D, Y97F, T98S, T99V, E100V
B5: 375G06 IgG (non-germlined) (antibody, V domains shown)
VH: EVQLVQSGAEVKKPGASVKVSCQASGYTFSDYYIHWVRQTPGQGFEWMGWVNPDTGGTRYAQKFQGWVTMTRDMSNTTAYMELPRLRDDDTAVYYCARDLTGYDYYDRWGQGTLVTVSS
VL: QSVLTQPPSMSVAPGKTATITCGGNNFRNKRVHWYQQRPGQAPVLVIYYDSDRPSGIPERFSGSRSGNTATLTISRVEAGDEADFYCQVWDFLADEAMFGGGTKLTVL
notes: IgG
B6: 376B10 IgG (non-germlined) (antibody, V domains shown)
VH: B5 VH with R85G, Y105Q, D107T, R108A
VL: QSVLTQPPSVSVAPGKTATITCGGNNFRNKRVHWYQQRPGQAPVLVIYYDSDRPSGIPERFSGSRSGNTATLTISRVEAGDEADFYCSTFDPFTDRPLFGGGTKLTVLG
notes: IgG
B7: 355B06 IgG (germlined) (antibody, V domains shown)
VH: QVQLVQSGAEVKKPGASVKVSCKASGYTFTDYYMHWVRQAPGQGLEWVGWINPYTGSAFYAQKFRGRVTMTRDTSISTAYMELSRLRSDDTAVYYCAREPEKFGESSGQLWGRGTLVTVSS
VL: QAVLTQPPSVSGAPGQRVTISCTGSSSNIGAGYGVHWYQQLPGTAPKLLIYGDSNRPSGVPDRFSGSKSGTSASLAITGLQAEDEADYYCQSYDSGLSGYVFGGGTQLTVLG
B8: 356A11 IgG (germlined; Tables 6 and 9) (antibody, V domains shown)
VH: B7 VH with D31N, G104D, E105S, S106D, S107D, G108S, Q109D, L110V
VL: B7 VL with S95N, G96S
B9: 355E04 IgG (germlined) (antibody, V domains shown)
VH: B7 VH with D31H, S57G, R65Q, G104D, E105S, S106P, S107N, G108A, Q109E, L110I
VL: B7 VL with D53N, G96S
B10: 354A08 IgG (germlined) (antibody, V domains shown)
VH: B7 VH with S57G, K102R, E105D, S107T, L110V
VL: B7 VL with D53N, Q91Y, S92H, Y93W, S95K, G96E, L97Q
notes: isotype of this preparation not restated
B11: 356A11 human monoclonal anti-IL-22 antibody (Examples 10, 11, 14, 15) (antibody, V domains shown)
VH: B7 VH with D31N, G104D, E105S, S106D, S107D, G108S, Q109D, L110V
VL: B7 VL with S95N, G96S
B12: 166B06 IgG (germlined) (antibody, V domains shown)
VH: QVQLVQSGAEVKKPGASVKVSCKASGYTFSDYYIHWVRQAPGQGLEWMGWVNPDTGGTRYAQKFQGRVTMTRDMSISTAYMELSRLRSDDTAVYYCARDLTGFDPFDIWGQGTLVTVSS
VL: SSVLTQPPSVSVAPGKTARITCGGNNFRNKRVHWYQQKPGQAPVLVIYYDSDRPSGIPERFSGSRSGNTATLTISRVEAGDEADYYCQVWDLFNDNGVFGGGTKLTVLG
B13: 166G05 IgG (germlined) (antibody, V domains shown)
VH: B12 VH
VL: B12 VL with L92F, F93L, N94T, N96S, V98S

Substitutions are numbered along the chain they refer to.

One test has as its target T1, human IL-22. The experiment in a line: cell-based or functional assay.
B1: the “IC50 of IgG (pM) in BaF3-IL-22 proliferation assay” value (shortened to “IC50 of IgG (pM)”) is 197 pM.

As to B2, the “IC50 of IgG (pM)” value is 112 pM.

As to B3, the “IC50 of IgG (pM)” value is 126 pM.

Consider B4, for which the “IC50 of IgG (pM)” value amounted to 127 pM.

Turning to B5, the “IC50 of IgG (pM)” value amounted to 100 pM.

Turning to B6, the “IC50 of IgG (pM)” value is 119 pM.

On to B7, for which the “IC50 of IgG (pM)” value stood at 92 pM.

As for B8, the “IC50 of IgG (pM)” value was found to be 53 pM.

Regarding B9, the “IC50 of IgG (pM)” value was 100 pM.

For B10, the “IC50 of IgG (pM)” value is 79 pM.

Another test deals with T1, human IL-22. Put plainly: cell-based or functional assay. The source holds these as a separate data set.
On to B11, for which the “IC50 (pM) in GROa cell based assay (HT29 cells)” value (“IC50 (pM) … (HT29 cells)” for short) came out at 124 pM.

The target of another test is T2, murine IL-22. The experiment in a line: cell-based or functional assay.
Regarding B11, the “IC50 (pM) … (HT29 cells)” value is 144 pM.

Another test has as its target T3, rat IL-22. Put plainly: cell-based or functional assay.
Turning to B11, the “IC50 (pM) … (HT29 cells)” value was found to be 211 pM.

A further test concerns the target monkey IL-22 (monkey). Put plainly: cell-based or functional assay.
For B11, the “IC50 (pM) … (HT29 cells)” value is 89.6 pM.

Another test deals with T1, human IL-22. Put plainly: cell-based or functional assay. This is another data set of the same source.
Consider B11, for which the “IC50 (pM) in BaF3 cell based assay” value amounted to 3.57 pM.

The target in the next test is T2, murine IL-22. The experiment in a line: cell-based or functional assay. This is another data set of the same source.
Regarding B11, the “IC50 (pM) in BaF3 cell based assay” value came to 2.53 pM.

A further test concerns the target T3, rat IL-22. The experiment in a line: cell-based or functional assay. This is another data set of the same source.
On to B11, for which the “IC50 (pM) in BaF3 cell based assay” value worked out at 10.7 pM.

For the next test, the target named is monkey IL-22 (monkey). The experiment in a line: cell-based or functional assay. This is another data set of the same source.
For B11, the “IC50 (pM) in BaF3 cell based assay” value was found to be 2.58 pM.

For a further test, the target named is T5, BSA (bovine, UniProt P02769).
T5 construct: also called bovine serum albumin
T5 sequence (P02769 25-607 limits assumed): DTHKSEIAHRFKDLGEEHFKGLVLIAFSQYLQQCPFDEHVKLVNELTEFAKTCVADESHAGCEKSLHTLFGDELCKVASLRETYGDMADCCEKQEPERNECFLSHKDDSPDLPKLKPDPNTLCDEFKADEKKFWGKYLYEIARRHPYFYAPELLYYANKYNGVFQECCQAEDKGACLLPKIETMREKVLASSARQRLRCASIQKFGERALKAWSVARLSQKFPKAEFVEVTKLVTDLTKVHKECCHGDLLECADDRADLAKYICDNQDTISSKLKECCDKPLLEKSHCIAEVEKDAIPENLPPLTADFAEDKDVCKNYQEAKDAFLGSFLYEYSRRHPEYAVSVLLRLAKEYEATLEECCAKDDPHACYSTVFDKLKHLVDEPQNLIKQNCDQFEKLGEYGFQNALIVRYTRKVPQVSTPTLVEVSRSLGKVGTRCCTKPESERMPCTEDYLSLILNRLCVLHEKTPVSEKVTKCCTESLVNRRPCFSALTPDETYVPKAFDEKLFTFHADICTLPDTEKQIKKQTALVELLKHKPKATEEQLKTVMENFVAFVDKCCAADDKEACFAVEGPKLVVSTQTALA
Put plainly: ELISA: plate coated with antigen, IgG added at 1 µg/ml, HRP goat anti-human IgG, A450. (An ELISA detects its analyte on a solid surface through an enzyme-linked reagent.)
Take B7: the binding result is given as “no binding (tested: 1 µg/ml)”.

On to B8, for which the binding result was “no binding (tested: 1 µg/ml)”.

As to B9, the binding result was “no binding (tested: 1 µg/ml)”.

For B10, the binding result is “no binding (tested: 1 µg/ml)”.

For B12, the binding result was “no binding (tested: 1 µg/ml)”.

Turning to B13, the binding result is “no binding (tested: 1 µg/ml)”.

In another test the target is T5, BSA. Described as above. This is another data set of the same source.
As for B1, the binding result is “no binding (tested: 1 µg/ml)”.

As to B2, the binding result is reported as “no binding (tested: 1 µg/ml)”.

Consider B3, for which the binding result is “no binding (tested: 1 µg/ml)”.

B4: the binding result is “no binding (tested: 1 µg/ml)”.

Turning to B5, the binding result is given as “no binding (tested: 1 µg/ml)”.

As for B6, the binding result is on record as “no binding (tested: 1 µg/ml)”.

The target in the next test is T4, IL-26. Put plainly: ELISA: plate coated with 1 µg/ml antigen, IgG added at 1 µg/ml, HRP goat anti-human IgG, A450. The procedure:
(§1) Cross species reactivity of germlined and non-germlined optimized antibodies were determined as follows: ELISA plates (Costar, Cat. #3590) were coated overnight with 1 μg/ml of rat, mouse, or human IL-22 or human IL-26 in PBS buffer. Plates were washed with PBST buffer (0.05% Tween20 in PBS) 3 times, then blocked with 1% BSA (Sigma A8918)/PBST for 1 hr at RT. Antibodies were added at 1 μg/ml, incubated 1 hr at 25° C. […] The plates were incubated for 1 hour at 25° C., then washed with PBST, and developed with TMB (KPL, Cat. #50-76-04). Reaction was stopped with 0.18 M H₂SO₄ Plates were read at OD 450 nm.
In the case of B1, the binding result is “no binding (tested: 1 µg/ml)”.

As for B3, the binding result is given as “no binding (tested: 1 µg/ml)”.

Turning to B4, the binding result is recorded as “no binding (tested: 1 µg/ml)”.

Turning to B5, the binding result is “no binding (tested: 1 µg/ml)”.

Consider B6, for which the binding result is given as “no binding (tested: 1 µg/ml)”.

Consider B7, for which the binding result is given as “no binding (tested: 1 µg/ml)”.

For B8, the binding result is listed as “no binding (tested: 1 µg/ml)”.

With B9, the binding result was “no binding (tested: 1 µg/ml)”.

Consider B10, for which the binding result is “no binding (tested: 1 µg/ml)”.

Consider B12, for which the binding result is “no binding (tested: 1 µg/ml)”.

In the case of B13, the binding result was “no binding (tested: 1 µg/ml)”.

The target of another test is T2, murine IL-22. The description is as above. The procedure: as §1
Consider B1, for which the binding result is recorded as “no binding (tested: 1 µg/ml)”.
